Experimental data taken from article PMC3157743, “An Examination by Site-Directed Mutagenesis of Putative Key Residues in the Determination of Coenzyme Specificity in Clostridial NAD^+-Dependent Glutamate Dehydrogenase” (Enzyme Research, 2011).

Legend:
Experiment in all cases: initial rates, A340 decrease or fluorescence
Format in all cases: biochemical, [Clostridium] symbiosum
Settings in all cases: 20 mM 2-oxoglutarate, 100 mM NH4Cl, 0.1 M potassium phosphate pH 7.0, 25 °C
[1] = tested on: T1, NC(=O)C1=CN([C@@H]2O[C@H](COP(=O)(O)OP(=O)(O)OC[C@H]3O[C@@H](n4cnc5c(N)ncnc54)[C@H](OP(=O)(O)O)[C@@H]3O)[C@@H](O)[C@H]2O)C=CC1
T1 construct: full-length recombinant wild-type gdh in ptac85, expressed in E. coli, purified on Remazol Red Sepharose; no tag mentioned
Excerpt: (§1) initial rates, A340 decrease or fluorescence on Clostridium symbiosum NAD^+-specific GDH (CsGDH)

[2] = tested on: T2, NC(=O)C1=CN([C@@H]2O[C@H](COP(=O)(O)OP(=O)(O)OC[C@H]3O[C@@H](n4cnc5c(N)ncnc54)[C@H](O)[C@@H]3O)[C@@H](O)[C@H]2O)C=CC1
T2 construct: full-length recombinant wild-type gdh in ptac85, expressed in E. coli, purified on Remazol Red Sepharose; no tag mentioned
Excerpt: as §1

[3] = substrate: NC(=O)C1=CN([C@@H]2O[C@H](COP(=O)(O)OP(=O)(O)OC[C@H]3O[C@@H](n4cnc5c(N)ncnc54)[C@H](O)[C@@H]3O)[C@@H](O)[C@H]2O)C=CC1
Excerpt: as §1

[4] = substrate: NC(=O)C1=CN([C@@H]2O[C@H](COP(=O)(O)OP(=O)(O)OC[C@H]3O[C@@H](n4cnc5c(N)ncnc54)[C@H](OP(=O)(O)O)[C@@H]3O)[C@@H](O)[C@H]2O)C=CC1
Excerpt: as §1

Clostridium symbiosum NAD^+-specific GDH (CsGDH) ([Clostridium] symbiosum; F239S)
Km [1]: 230 ± 50 µM
kcat [1]: 11.1 ± 0.21 s⁻¹
kcat/Km [1]: 48300 M⁻¹ s⁻¹
Km [2]: 40 ± 3 µM
kcat [2]: 139 ± 5 s⁻¹
kcat/Km [2]: 3.48e+06 M⁻¹ s⁻¹

Clostridium symbiosum NAD^+-specific GDH (CsGDH) ([Clostridium] symbiosum; P263S)
Km [1]: 110 ± 10 µM
kcat [1]: 62.5 ± 1.6 s⁻¹
kcat/Km [1]: 568000 M⁻¹ s⁻¹
Km [2]: 47 ± 103 µM
kcat [2]: 160 ± 8 s⁻¹
kcat/Km [2]: 3.4e+06 M⁻¹ s⁻¹

Clostridium symbiosum NAD^+-specific GDH (CsGDH) ([Clostridium] symbiosum; F239S/P263S)
Km [1]: 330 ± 20 µM
kcat [1]: 83.3 ± 3.5 s⁻¹
kcat/Km [1]: 252000 M⁻¹ s⁻¹
Km [2]: 35 ± 10 µM
kcat [2]: 105 ± 4 s⁻¹
kcat/Km [2]: 3e+06 M⁻¹ s⁻¹

Clostridium symbiosum NAD^+-specific GDH (CsGDH) ([Clostridium] symbiosum; A243G)
Km [1]: 386 ± 50 µM
kcat [1]: 1.87 ± 0.01 s⁻¹
kcat/Km [1]: 4840 M⁻¹ s⁻¹
Km [2]: 25 ± 1 µM
kcat [2]: 65.1 ± 1.6 s⁻¹
kcat/Km [2]: 2.6e+06 M⁻¹ s⁻¹

Clostridium symbiosum NAD^+-specific GDH (CsGDH) ([Clostridium] symbiosum; D264K)
Km [1]: 107 ± 20 µM
kcat [1]: 26.3 ± 0.35 s⁻¹
kcat/Km [1]: 246000 M⁻¹ s⁻¹
Km [2]: 23 ± 2 µM
kcat [2]: 80 ± 2.5 s⁻¹
kcat/Km [2]: 3.48e+06 M⁻¹ s⁻¹

B1: Clostridium symbiosum NAD^+-specific GDH (CsGDH) ([Clostridium] symbiosum) (protein)
chain: SKYVDRVIAEVEKKYADEPEFVQTVEEVLSSLGPVVDAHPEYEEVALLERMVIPERVIEFRVPWEDDNGKVHVNTGYRVQFNGAIGPYKGGLRFAPSVNLSIMKFLGFEQAFKDSLTTLPMGGAKGGSDFDPNGKSDREVMRFCQAFMTELYRHIGPDIDVPAGDLGVGAREIGYMYGQYRKIVGGFYNGVLTGKARSFGGSLVRPEATGYGSVYYVEAVMKHENDTLVGKTVALAGFGNVAWGAAKKLAELGAKAVTLSGPDGYIYDPEGITTEEKINYMLEMRASGRNKVQDYADKFGVQFFPGEKPWGQKVDIIMPCATQNDVDLEQAKKIVANNVKYYIEVANMPTTNEALRFLMQQPNMVVAPSKAVNAGGVLVSGFEMSQNSERLSWTAEEVDSKLHQVMTDIHDGSAAAAERYGLGYNLVAGANIVGFQKIADAMMAQGIAW
notes: full-length recombinant wild-type gdh in ptac85, expressed in E. coli, purified on Remazol Red Sepharose; no tag mentioned
Km [3]: 20 ± 1 µM
kcat [3]: 130.2 ± 3.1 s⁻¹
kcat/Km [3]: 6.5e+06 M⁻¹ s⁻¹
Km [4]: 90 ± 11 µM
kcat [4]: 2.87 ± 0.11 s⁻¹
kcat/Km [4]: 31900 M⁻¹ s⁻¹
